Laboratory results reported in US20230192897A1 (NUMAB THERAPEUTICS, published 2023).

Columns and labels:
[1] = target: T1, CD137 on Jurkat NFkB reporter cells (human, UniProt Q07011 24-255); experiment: cell-based or functional assay
biotinylated human PDL1 [2] = target: T2, biotinylated human PDL1 (human, UniProt Q9NZQ7 19-238, limits assumed, biotinylated); experiment: competition ELISA PD-1/PDL1
T2 construct: also called biotinylated PDL1

human serum albumin = target: T3, human serum albumin (human, UniProt P02768 25-609); experiment: SPR, SA coupled to chip, pH 5.5
T3 construct: Coupled directly to the CM5 chip; also called HSA; human SA
Experimental: (§1) Affinity of molecules to serum albumin (SA) of the different species was determined by SPR measurements using a Biacore T200 device (GE Healthcare). SA was directly coupled to a CM5 sensor chip (GE Healthcare) using amine coupling chemistry. […] The assay was run in a 1× PBS-Tween buffer at pH 5.5.

mouse serum albumin [3] = target: T4, mouse serum albumin (mouse, UniProt P07724 25-608); experiment: SPR, SA coupled to chip, pH 5.5
T4 construct: Coupled directly to the CM5 chip; also called MSA; mouse SA
Experimental: as §1

[4] = target: T1, CD137 on Jurkat NFkB reporter cells; experiment: cell-based or functional assay; remark: listed apart in the source
human PDL1 on cells = human PDL1 on cells (human, UniProt Q9NZQ7 19-290); experiment: cell-based or functional assay
biotinylated human PDL1 [5] = target: T2, biotinylated human PDL1; experiment: PD-1/PDL1 competition ELISA with 1 mg/ml HSA: coated human PD-1, biotinylated human PDL1; blocked ligand: human PD-1
Experimental: (§2) Plates were blocked for 1 hour at room temperature by adding 300 μl of PBS with i%BSA and 0.2% tween (dilution buffer) to each well. Inhibitors were serially diluted in 3-fold steps to final concentrations ranging from 300 to 0.005 ng/ml in dilution buffer containing 1 ng/ml biotinylated human PDL1. The mixtures were pre-incubated for 1 hour at room temperature under gentle agitation on a rotating mixer (21 rpm) and added to the microplates after 3 wash cycles with 450 μl wash buffer per well. Plates were incubated for 1.5 hours at room temperature under gentle agitation, then 10 ng/ml streptavidin-polyHRP40 was added to each microplate well after three washes with 450 μl of wash buffer per well. After 1 h incubation at RT, plates were washed three times with 450 μl wash buffer and TMB substrate solution was added. The enzymatic reaction was stopped after 6 minutes by addition of 1 M HCl and absorbance was measured at 450 nm using 690 nm as a reference wavelength. For calculation of IC₅₀ values, a four-parameter logistic (4PL) curve fit was performed in Graph Pad Prism using reference subtracted values.

biotinylated human PDL1 [6] = target: T2, biotinylated human PDL1; experiment: competition ELISA PD-1/PDL1 with HSA
Experimental: as §2

[7] = target: T1, CD137 on Jurkat NFkB reporter cells; experiment: cell-based or functional assay; remark: listed apart in the source
[8] = target: T1, CD137 on Jurkat NFkB reporter cells; experiment: cell-based or functional assay; remark: listed apart in the source
biotinylated human PDL1 [9] = target: T2, biotinylated human PDL1; experiment: competition ELISA B7.1/PDL1
How it was run: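 IC₅₀ was derived by four-parameter logistic fitting of reference-subtracted A450/690 readings. The signal came from streptavidin-polyHRP40 (10 ng/ml) with a 6-minute TMB reaction detecting biotinylated PDL1 bound to the plate. Pre-mixed samples sat 1 h at RT before a 1.5 h plate incubation.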

Fc tagged human CD137 = target: T5, Fc tagged human CD137 (human, UniProt Q07011 24-186); experiment: SPR
T5 construct: also called CD137-Fc chimeric protein
How it was run: (§3)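 Kinetics were fitted with a one-to-one Langmuir model to give apparent ka, kd and KD. Binders at 0.12-90 nM (three-fold series) flowed 3 min, with 10 min dissociation and 3 M MgCl₂ regeneration, on a Biacore T200.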

Fc tagged human PDL1 = target: T6, Fc tagged human PDL1 (human, UniProt Q9NZQ7 19-239); experiment: SPR
T6 construct: Bought (Sino Biological, cat. 10084-H02H); captured on the SPR chip; also called PDL1-Fc chimeric protein
How it was run: as §3

[10] = target: T7, mouse CD137-Fc chimeric protein (mouse, UniProt P20334 24-187, limits assumed); experiment: SPR
T7 sequence (looked up): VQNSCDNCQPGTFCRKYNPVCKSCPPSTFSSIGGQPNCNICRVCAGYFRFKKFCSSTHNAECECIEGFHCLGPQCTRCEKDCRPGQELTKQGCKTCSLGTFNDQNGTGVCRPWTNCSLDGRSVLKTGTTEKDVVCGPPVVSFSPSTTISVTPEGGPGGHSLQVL
How it was run: as §3

[11] = target: cynomolgus CD137-Fc chimeric protein (cynomolgus monkey, UniProt A9YYE7 24-186); experiment: SPR
How it was run: as §3

mouse serum albumin [12] = target: T4, mouse serum albumin; experiment: SPR, SA coupled to chip
Experimental: as §1

B1: PRO1057 (other)
chain: DIQMTQSPSSLSASVGDRVTITCQASQSINDYLAWYQQKPGKAPKLLIYKASTLASGVPSRFSGSGSGTDFTLTISSLQPEDFATYYCQQGYIITDIDNVFGTGTKVTVLGGGGGSQVQLQESGPGLVKPSETLSLTCKVSGFSFSNSYWICWIRQPPGKGLEWIGCTFVGSSDSTYYANWAKGRVTISVDSSKNQFSLKLSSVTAADTAVYYCARHPSDAVYGYANNLWGQGTLVTVSSGGGGSGGGGSGGGGSGGGGSIQMTQSPSSLSASVGDRVTITCQASQSINNVLAWYQQKPGKAPKLLIYRASTLASGVPSRFSGSGSGTDFTLTISSLQPEDFATYYCQSSYGNYGDFGTGTKVTVLGGGGGSQVQLQESGPGLVKPSETLSLTCKVSGFSFSSGYDMCWIRQPPGKGLEWIGCVVAGSVDITYYASWAKGRVTISVDSSKNQFSLKLSSVTAADTAVYYCARKDAYSDAFNLWGQGTLVTVSSGGGGSGGGGSVVMTQSPSSLSASVGDRVTITCQASQIISSRSAWYQQKPGQPPKLLIYQASKLASGVPSRFSGSGSGTDFTLTISSLQPEDFATYYCQCTYIDSNFGAFGGGTKLTVLGGGGGSGGGGSGGGGSGGGGSEVQLVESGGGLVQPGGSLRLSCAASGFSFSSSYWICWVRQAPGKGLEWVGCVFTGDGTTYYASWAKGRFTISRDNSKNTVYLQMNSLRAEDTATYFCARPVSVYYYGMDLWGQGTLVTVSS
notes: trispecific scDb-scFv; also called 38-02-A04 sc01 scDb-i/33-03-G02 sc01 scDb-o/23-12-A01-sc03, sk17sh4
EC50, NFkB reporter, HCC827 with IFNg, 24 h, +HSA [1]: 0.115 µg/mL | EC50, NFkB reporter, HCC827 without IFNg, 24 h, +HSA [1]: 0.0766 µg/mL | IC50 (biotinylated human PDL1 [2]): 0.00861 µg/mL | rel. IC50 (IC50 avelumab/IC50 test) (biotinylated human PDL1 [2]): 0.2 fold | koff (human serum albumin): 0.00067 s⁻¹ | kon (human serum albumin): 240000 M⁻¹ s⁻¹ | kon (mouse serum albumin [3]): 130000 M⁻¹ s⁻¹ | EC50, NFkB reporter, CHO-PDL1, 24 h, +HSA [4]: 0.792 µg/mL | IC50 (ng/ml), NF-AT potency assay, +HSA (human PDL1 on cells): 665 ng/mL | rel. IC50 (avelumab/test), +HSA (human PDL1 on cells): 0.1 fold | IC50 (read off the curve) (biotinylated human PDL1 [5]): ~0.02 µg/mL | fold change of IC50 in presence of human serum albumin (biotinylated human PDL1 [6]): ~2 fold | IC50 (ng/ml), NFkB reporter, CHO-PD-L1, 24 h, +HSA [7]: 792 ng/mL | IC50 (ng/ml), NFkB reporter, HCC827 + IFNg, 24 h, +HSA [7]: 115 ng/mL | IC50 (ng/ml), NFkB reporter, HCC827 - IFNg, 24 h, +HSA [7]: 76.6 ng/mL | max. activation (%), NFkB reporter, CHO-PD-L1, 24 h, +HSA [7]: 663% | rel. IC50 (urelumab/test), NFkB reporter, CHO-PD-L1, 24 h, +HSA [7]: 0.1 fold | rel. IC50 (urelumab/test), NFkB reporter, HCC827 + IFNg, 24 h, +HSA [7]: 0.46 fold | rel. IC50 (urelumab/test), NFkB reporter, HCC827 - IFNg, 24 h, +HSA [7]: 0.62 fold | EC50, NFkB reporter, CHO-PDL1, 6 h, +HSA [8]: 0.112 µg/mL | IC50 (biotinylated human PDL1 [9]): 0.0163 µg/mL | rel. IC50 (IC50 avelumab/IC50 test) (biotinylated human PDL1 [9]): 0.53 fold | Kd (Fc tagged human CD137): 5.15 nM | koff (Fc tagged human CD137): 0.0007 s⁻¹ | kon (Fc tagged human CD137): 240000 M⁻¹ s⁻¹ | Kd (Fc tagged human PDL1): 0.11 nM | koff (Fc tagged human PDL1): 0.00017 s⁻¹ | Kd [10]: 1200 nM | Kd [11]: 4.8 nM

B2: PRO963 (other)
chain: DIQMTQSPSSLSASVGDRVTITCQASQSINDYLAWYQQKPGKAPKLLIYKASTLASGVPSRFSGSGSGTDFTLTISSLQPEDFATYYCQQGYIITDIDNVFGTGTKVTVLGGGGGSQVQLQESGPGLVKPSETLSLTCKVSGFSFSNSYWICWIRQPPGKGLEWIGCTFVGSSDSTYYANWAKGRVTISVDSSKNQFSLKLSSVTAADTAVYYCARHPSDAVYGYANNLWGQGTLVTVSSGGGGSGGGGSGGGGSGGGGSIQMTQSPSSLSASVGDRVTITCQASQSINNVLAWYQQKPGKAPKLLIYRASTLASGVPSRFSGSGSGTDFTLTISSLQPEDFATYYCQSSYGNYGDFGTGTKVTVLGGGGGSQVQLQESGPGLVKPSETLSLTCKVSGFSFSSGYDMCWIRQPPGKGLEWIGCVVAGSVDITYYASWAKGRVTISVDSSKNQFSLKLSSVTAADTAVYYCARKDAYSDAFNLWGQGTLVTVSSGGGGSGGGGSIQMTQSPSSLSASVGDRVTITCQSSESVYSNNQLSWYQQKPGQPPKLLIYDASDLASGVPSRFSGSGSGTDFTLTISSLQPEDFATYYCAGGFSSSSDTAFGGGTKLTVLGGGGGSGGGGSGGGGSGGGGSEVQLVESGGGLVQPGGSLRLSCAASGFSLSSNAMGWVRQAPGKGLEYIGIISVGGFTYYASWAKGRFTISRDNSKNTVYLQMNSLRAEDTATYFCARDRHGGDSSGAFYLWGQGTLVTVSS
notes: trispecific scDb-scFv anti-PDL1 x CD137 x HSA; also called PRO1051; 38-02-A04 sc01 scDb-i/33-03-G02 sc01 scDb-o/19-01-H04-sc03 scFv
koff (human serum albumin): 0.0003 s⁻¹ | IC50 (ng/ml), NF-AT potency assay, +HSA (human PDL1 on cells): 275 ng/mL | rel. IC50 (avelumab/test), +HSA (human PDL1 on cells): 0.25 fold | max. activation (%), NFkB reporter, CHO-PD-L1, 24 h, +HSA [7]: 369% | binding result (mouse serum albumin [12]): no binding | Kd (Fc tagged human CD137): 3 nM | koff (Fc tagged human CD137): 0.00062 s⁻¹ | kon (Fc tagged human CD137): 200000 M⁻¹ s⁻¹ | Kd (Fc tagged human PDL1): 0.0066 nM | kon (Fc tagged human PDL1): 2e+06 M⁻¹ s⁻¹
